For the data set, the system named is MS2 coat protein. Kind of data set: apparent KD of MS2 coat protein; designed switch direction (-1 OFF switch, 1 ON switch): 1; higher = weaker reporter binding. In short, it runs like this: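 Normalised cluster fluorescence was curve-fitted, and each design's median over clusters is its apparent KD. Before this, SNAP-549-labelled MS2 coat protein was titrated from 0.7 or 1.5 nM, doubling to 3 µM, over RNA switches transcribed on Illumina chips by stalled E. coli RNA polymerase. Titrations had no input, 200 uM small-molecule ligand, or an oligonucleotide input, and steps lasted 0.8–1.5 h (lowest) to 10–20 min (highest).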

Setting [1] is: input ligand: microRNA oligo, concentration not stated.
Where [2] appears, read: Eterna round: R95, input ligand: FMN 200 uM.
The mark [3] stands for this setting: Eterna round: R95, input ligand: microRNA oligo, concentration not stated.
The mark [4] stands for this setting: Eterna round: R95, input ligand: none.

Turning to “GUUACAUGAGGAUCACCCAUGUAUGUGUGGGAGUAAGUGUCUUAGGAUAUCUAUUAUUUAAGUUAAGAGAAGGAAGAUUGUUGU [JMF's solution 23] (Eterna round: R96, puzzle: Same State NG 3)”, the “apparent KD of MS2 coat protein” value runs as follows: (input ligand: FMN 200 uM) 121 nM; under setting [1], 94.7 nM; (input ligand: none) 114 nM.
The like results for “GUUACAUGAGGAUCACCCAUGUAUGUGUGGGAGUAAGUGUCUUAGGAUAUCUGGUAUUUAAUUUAAGAGAAGGAAGAUUGUUGU [JMF's solution 30] (Eterna round: R96, puzzle: Same State NG 3)” were, in that order, 91.9 nM, 63.7 nM and 77.3 nM.
The like results for “GUUAGGAAUCUAGCAAACAUGAGGAUCACCCAUGUAAGUGGGAAGGAUAUGGUACAGAAACUGUACCAGAAGGUCUUAUUGUUU [Omei SS(NG) 3 AV8] (Eterna round: R96, puzzle: Same State NG 3)” were, in that order, 602 nM, 17.5 nM and 280 nM.
The like results for “GUUAGGAAUCUAGCAGACAUGAGGAUCACCCAUGUUAGUGGGAAGGAUAUGGUACAGAAACUGUACCAGAAGGUCUUAUUGUUU [Omei SS(NG) 3 AV13] (Eterna round: R96, puzzle: Same State NG 3)” were, in that order, 348 nM, 398 nM and 690 nM.
Take “GUUAGGAAUCUAGCAUACAUGAGGAUCACCCAUGUAAGUGGGAAGGAUAUGGUACAGAAACUGUACCAGAAGGUCUUAUUAAUU [Omei SS(NG) 3 A] (Eterna round: R96, puzzle: Same State NG 3)”: the “apparent KD of MS2 coat protein” value is, setting by setting: (input ligand: FMN 200 uM) 65.3 nM; under setting [1], 80.4 nM; (input ligand: none) 63.1 nM.
In the case of “GUUAUACAUGAGGAUCACCCAUGUCAAUGUAGUCGAGGAUAUGGGCAGCUGUGAGGCGUACUAGAAGGCGAAGAGG [JL-ss1-3.10 ViennaUCT mod] (puzzle: Same State 1)”, the “apparent KD of MS2 coat protein” value was 86.1 nM under setting [2], 198 nM under setting [3] and 170 nM under setting [4].
Regarding “GUUUGAUGGUGAGGAUAUGUACAAAGAUAGGGUAUAGAAGGCAUGCGCCGGGAAACCGCGGUACAUGAGGAUCACCCAUGUGUC [Eternabot solution 36] (Eterna round: R96, puzzle: Same State NG 1)”, the “apparent KD of MS2 coat protein” value turned out to be 207 nM (input ligand: FMN 200 uM), 54.9 nM under setting [1] and 121 nM (input ligand: none).
On to “UAAAGAUCGCGAGGAUAUCGCGAGGAUCACCCGUGAGAAGGCGCAGAGCCGAGGAUCACCCGGCUGAUCCUGAGGAGGAGGUCU (Eterna round: R96, puzzle: Same State NG 1)”, for which the “apparent KD of MS2 coat protein” value worked out at 124 nM (input ligand: FMN 200 uM), 202 nM under setting [1] and 318 nM (input ligand: none).
The like results for “UAAAUAAUGUAAGGAUAUACAUGAGGAAUUCUCGUAGAAGGUACAUGACAUGAGGAUCACCCAUGUAUCGCUCAGAAGAGCGUA [Mat - Same State NG 1 - JL mod - D28] (Eterna round: R96, puzzle: Same State NG 1)” were, in that order, 1660 nM, 39.9 nM and 298 nM.
The like results for “UAAGCAUUCCUAGGAUAUGUAGGAUAUGUACAUGAGGAUCACCCAUGUCUACCAGAGACAGAAGGACAGAAGGAGGAAUGCUUC [pwkr ssNG2 2FMN 1F5s.8] (Eterna round: R96, puzzle: Same State NG 2)” were, in that order, 19.1 nM, 25.8 nM and 36.5 nM.
On to “UAAGUCAUGUAAGGAUAUGCAGCCGAAACGGCUGCAGAAGGUACUAUAAUUACAUGAGGAUCACCCAUGUUAUAAAAUUUAAAU [Mat - Same State NG 1 - JL mod - D78] (Eterna round: R96, puzzle: Same State NG 1)”, for which the “apparent KD of MS2 coat protein” value by setting is: (input ligand: FMN 200 uM) 24.1 nM; under setting [1], 43.2 nM; (input ligand: none) 60.7 nM.
As for “UACAAUCUAUCUGAGGAUAUCAUGAAUUUAACAUGAGGAUCACCCAUGUGCAGGAAAACUGCAUAUGAGAAGGCAGAUAGAUUGU [salish99_ss2_r3_061] (puzzle: Same State 2)”, the “apparent KD of MS2 coat protein” value runs as follows: under setting [2], 71.3 nM; under setting [3], 28 nM; under setting [4], 94.1 nM.
The like results for “UACAAUCUAUCUGAGGAUAUCAUGAUUUUAACAUGAGGAUCACCCAUGUGCAGGAAAACUGCAUAUGAGAAGGCAGAUAGAUUGU [salish99_ss2_r3_070] (puzzle: Same State 2)” were, in that order, 199 nM, 69.7 nM and 178 nM.
Take “UAGGGACAUGAGGAUCACCCAUGUGCCUCAUAUGGAGAAACUCAGGAUAUGCUGAGGAUCACCCGGCAGAAGGGAGAUCCGAGG (Eterna round: R96, puzzle: Same State NG 3)”: the “apparent KD of MS2 coat protein” value (input ligand: FMN 200 uM) stood at 86.6 nM, the “apparent KD of MS2 coat protein” value under setting [1] is 33 nM and the “apparent KD of MS2 coat protein” value (input ligand: none) was found to be 53.4 nM.
The like results for “UAGUACAUGCUUUUUGUCUGUCUUAGAUAACAUGAGGAUCACCCAUGUAAGGUGAAAGUUAUAUAGUUUAUGAAUAU [JR_SHM208A_Sub058] (Eterna round: R96, puzzle: Sensor for hsa-mir-208a)” were, in that order, 242 nM, 309 nM and 241 nM.
For “UAGUACAUGCUUUUUGUCUGUCUUAGAUAACAUGAGGAUCACCCAUGUAAGGUGAAAGUUAUAUAGUUUAUGAAUAU [JR_SHM208A_Sub058] (puzzle: Sensor for hsa-mir-208a)”, the “apparent KD of MS2 coat protein” value by setting is: under setting [2], 188 nM; under setting [3], 346 nM; under setting [4], 264 nM.
As for “UAUCCAUAGAUAGGAUAUUAGAGAACAUGAGGAUCACCCAUGUUUGGCUUGGUUUUAAGCUAAUCUAAGAAGGAUCUUGAUGAA [SameState NG2 #9] (Eterna round: R96, puzzle: Same State NG 2)”, the “apparent KD of MS2 coat protein” value was found to be 13.3 nM (input ligand: FMN 200 uM), 22.9 nM under setting [1] and 36.5 nM (input ligand: none).
The like results for “UAUCGUUUGAUAGGAUAUCGCUAUACAUGAGGAUCACCCAUGUUUACCACGCUGGUUUUUCAUACCGAGAAGGAUUCUGAUGAA [salish99_SSNG02_r04_004] (Eterna round: R96, puzzle: Same State NG 2)” were, in that order, 29 nM, 19.6 nM and 32.5 nM.
The like results for “UAUGACUUACAAGGAUAUUAAUGACAUGAGGAUCACCCAUGUGGCUGUGUGUGUUAGAUAAGCUUUAAGAAGGUGUGCGUGUCU [JR_SSNG2_Sub096] (Eterna round: R96, puzzle: Same State NG 2)” were, in that order, 361 nM, 288 nM and 386 nM.
The like results for “UAUUAAUCUGUAGGAUAUCUAGGAUAUGGACGAGGAUCACCCGAGCAGCAUCAGCGCACCAGAGGAGAGAAGGACGCUCUGGUG [pwkr ssNG2 2F5 2FMN.25] (Eterna round: R96, puzzle: Same State NG 2)” were, in that order, 332 nM, 93.7 nM and 469 nM.
For “UAUUGUUCCUGAGGAUAUCAGUUGUUUGCAUUAUGAGAAGGCAGUACAUGAGGAUCACCCAUGUUGGGAUUUGAUAGAAUGAUA [JR_SSNG1_Sub007] (Eterna round: R96, puzzle: Same State NG 1)”, the “apparent KD of MS2 coat protein” value under setting [1] stood at 133 nM.
Turning to “UCAAGAUCGCGAGGAUAUCGCGAGGAUCACCCGUGAGAAGGCGCAGAGCCGAGGAUCACCCGGCUGAUCCUGAGGAGGAGGUAA (Eterna round: R96, puzzle: Same State NG 1)”, the “apparent KD of MS2 coat protein” value by setting is: (input ligand: FMN 200 uM) 139 nM; under setting [1], 234 nM; (input ligand: none) 420 nM.
The like results for “UCAAUCAUGUAAGGAUAUGCAGCCGAAACGGCUGCAGAAGGUACUAUAAUUACAUGAGGAUCACCCAUGUUAUAAAAUUAAAAU [Mat - Same State NG 1 - JL mod - D69] (Eterna round: R96, puzzle: Same State NG 1)” were, in that order, 35.3 nM, 101 nM and 130 nM.
The like results for “UCACCUAUCGACAUGAGGAUCACCCAUGUGGAUUGAGCUUCCAAGGAUAUCGGCGCACAACCCAUCGAGAAGGUGGAAAGAUAC [Eternabot solution 32] (Eterna round: R96, puzzle: Same State NG 3)” were, in that order, 16.6 nM, 12.3 nM and 18 nM.
The like results for “UCAGUCAUGUAAGGAUAUGCAGCCGAAACGGCUGCAGAAGGUACUAUAAUUACAUGAGGAUCACCCAUGUUAUAAAAUUUAUAU [Mat - Same State NG 1 - JL mod - D64] (Eterna round: R96, puzzle: Same State NG 1)” were, in that order, 24.4 nM, 44.9 nM and 58.8 nM.
Consider “UCGAGCGUACUUGCAGACAUGAGGAUCACCCAUGUAAAUGGGAAGGAUAUGGUACCGUUUCGGUACCAGAAGGUCCUAGGUGCU [salish99_SSNG3_r04_306] (Eterna round: R96, puzzle: Same State NG 3)”, for which the “apparent KD of MS2 coat protein” value runs as follows: (input ligand: FMN 200 uM) 250 nM; under setting [1], 327 nM; (input ligand: none) 1290 nM.
Consider “UCGGGCGUACUUGCAGACAUGAGGAUCACCCAUGUAAAUGGGAAGGAUAUGGUACCGUUUCGGUACCAGAAGGUCCUGGGUGCU [salish99_SSNG3_r04_308] (Eterna round: R96, puzzle: Same State NG 3)”, for which the “apparent KD of MS2 coat protein” value is, setting by setting: (input ligand: FMN 200 uM) 810 nM; under setting [1], 281 nM; (input ligand: none) 1960 nM.

(Values after the supplement of paper PMC9170038.)
